# Square brackets hold non-standard residues; d marks the D form. hPhe = N[C@@H](CCc1ccccc1)C(=O)O
# Molecular target: T1, mouse melanocortin-1 receptor (mouse, UniProt Q01727 1-315)
# Assay: cell-based or functional assay
# T1 sequence (Q01727 whole entry): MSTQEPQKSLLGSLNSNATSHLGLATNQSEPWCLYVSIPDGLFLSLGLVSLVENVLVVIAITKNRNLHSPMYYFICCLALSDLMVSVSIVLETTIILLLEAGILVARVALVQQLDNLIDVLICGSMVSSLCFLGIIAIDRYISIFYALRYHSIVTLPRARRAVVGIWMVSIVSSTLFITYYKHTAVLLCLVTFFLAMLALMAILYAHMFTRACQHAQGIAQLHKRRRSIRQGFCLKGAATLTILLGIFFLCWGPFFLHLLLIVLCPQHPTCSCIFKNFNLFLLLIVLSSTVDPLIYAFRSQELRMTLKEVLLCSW
agonist EC50 (cAMP AlphaScreen),% maximal NDP-MSH response at 100 µM (cAMP AlphaScreen),"partial agonist efficacy, % of NDP-MSH",Binder
230 nM,,,PRFFXAFP (head-to-tail cyclic; DPhe at 3; Dap at 5; DPro at 8) [c[Pro-Arg-DPhe-Phe-Dap-Ala-Phe-DPro]]
,25%,,PRFFXAFP (head-to-tail cyclic; DArg at 2; Dap at 5; DPro at 8) [c[Pro-DArg-Phe-Phe-Dap-Ala-Phe-DPro]]
800 nM,,70%,PRFFXAFP (head-to-tail cyclic; DArg at 2; DPhe at 3; Dap at 5; DPro at 8) [c[Pro-DArg-DPhe-Phe-Dap-Ala-Phe-DPro]]
800 nM,,75%,PRFFXAFP (head-to-tail cyclic; DPhe at 4; Dap at 5; DPro at 8) [c[Pro-Arg-Phe-DPhe-Dap-Ala-Phe-DPro]]
700 nM,,,PRFFXAFP (head-to-tail cyclic; DPhe at 3 and 4; Dap at 5; DPro at 8) [c[Pro-Arg-DPhe-DPhe-Dap-Ala-Phe-DPro]]
2200 nM,,60%,PRFFXAFP (head-to-tail cyclic; DArg at 2; DPhe at 3 and 4; Dap at 5; DPro at 8) [c[Pro-DArg-DPhe-DPhe-Dap-Ala-Phe-DPro]]

# Molecular target: mouse melanocortin-4 receptor (mouse, UniProt P56450 1-332)
# Sequence (P56450 whole entry): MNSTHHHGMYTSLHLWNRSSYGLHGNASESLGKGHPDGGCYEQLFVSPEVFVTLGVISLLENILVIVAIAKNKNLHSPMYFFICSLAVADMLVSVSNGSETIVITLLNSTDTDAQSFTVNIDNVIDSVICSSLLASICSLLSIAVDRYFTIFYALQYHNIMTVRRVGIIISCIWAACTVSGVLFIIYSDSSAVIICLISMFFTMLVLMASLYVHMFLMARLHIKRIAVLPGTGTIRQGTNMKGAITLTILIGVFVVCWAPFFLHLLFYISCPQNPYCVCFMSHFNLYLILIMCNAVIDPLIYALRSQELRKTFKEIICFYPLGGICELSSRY
# Assay: cell-based or functional assay
row,% maximal NDP-MSH response at 100 µM (cAMP AlphaScreen),Binder
1,20%,PRFFXAFP (head-to-tail cyclic; DPhe at 3; Dap at 5; DPro at 8) [c[Pro-Arg-DPhe-Phe-Dap-Ala-Phe-DPro]]
2,25%,PRFFXAFP (head-to-tail cyclic; DArg at 2; Dap at 5; DPro at 8) [c[Pro-DArg-Phe-Phe-Dap-Ala-Phe-DPro]]

# Molecular target: T2, mouse melanocortin-5 receptor (mouse, UniProt P41149 1-325)
# T2 sequence (P41149 whole entry): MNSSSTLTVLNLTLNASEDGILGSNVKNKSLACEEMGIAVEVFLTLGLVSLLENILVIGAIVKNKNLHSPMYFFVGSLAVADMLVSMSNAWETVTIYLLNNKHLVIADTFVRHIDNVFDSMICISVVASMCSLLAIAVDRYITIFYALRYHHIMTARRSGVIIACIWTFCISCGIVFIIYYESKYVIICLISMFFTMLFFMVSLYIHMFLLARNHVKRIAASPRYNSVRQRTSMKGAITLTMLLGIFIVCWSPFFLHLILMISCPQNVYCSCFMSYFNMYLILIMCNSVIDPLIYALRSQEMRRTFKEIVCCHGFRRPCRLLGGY
# Assay: cell-based or functional assay
agonist EC50 (cAMP AlphaScreen),"inverse agonist, % change from basal cAMP at 100 µM",Binder
> 100000 nM,,PRFFXAFP (head-to-tail cyclic; DPhe at 3; Dap at 5; DPro at 8) [c[Pro-Arg-DPhe-Phe-Dap-Ala-Phe-DPro]]
> 100000 nM,,PRFFXAFP (head-to-tail cyclic; DArg at 2; Dap at 5; DPro at 8) [c[Pro-DArg-Phe-Phe-Dap-Ala-Phe-DPro]]
,-30%,PRFFXAFP (head-to-tail cyclic; DArg at 2; DPhe at 3; Dap at 5; DPro at 8) [c[Pro-DArg-DPhe-Phe-Dap-Ala-Phe-DPro]]
> 100000 nM,,PRFFXAFP (head-to-tail cyclic; DPhe at 4; Dap at 5; DPro at 8) [c[Pro-Arg-Phe-DPhe-Dap-Ala-Phe-DPro]]
> 100000 nM,,PRFFXAFP (head-to-tail cyclic; DPhe at 3 and 4; Dap at 5; DPro at 8) [c[Pro-Arg-DPhe-DPhe-Dap-Ala-Phe-DPro]]
,-15%,PRFFXAFP (head-to-tail cyclic; DArg at 2; DPhe at 3 and 4; Dap at 5; DPro at 8) [c[Pro-DArg-DPhe-DPhe-Dap-Ala-Phe-DPro]]

# Molecular target: mouse melanocortin-3 receptor (mouse, UniProt P33033 1-323)
# Sequence (P33033 whole entry): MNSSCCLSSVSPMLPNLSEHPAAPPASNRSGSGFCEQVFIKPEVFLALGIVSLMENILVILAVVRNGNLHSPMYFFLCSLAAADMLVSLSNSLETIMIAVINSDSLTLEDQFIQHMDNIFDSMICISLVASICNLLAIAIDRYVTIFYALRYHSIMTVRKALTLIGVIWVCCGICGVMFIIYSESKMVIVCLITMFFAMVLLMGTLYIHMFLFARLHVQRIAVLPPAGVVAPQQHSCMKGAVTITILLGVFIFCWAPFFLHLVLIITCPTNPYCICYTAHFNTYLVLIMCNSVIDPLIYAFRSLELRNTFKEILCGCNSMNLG
# Assay: cell-based or functional assay
agonist EC50 (cAMP AlphaScreen),"antagonist pA2 (Schild, agonist NDP-MSH)",% maximal NDP-MSH response at 100 µM (cAMP AlphaScreen),Binder
> 100000 nM,5.92,,PRFFXAFP (head-to-tail cyclic; DPhe at 3; Dap at 5; DPro at 8) [c[Pro-Arg-DPhe-Phe-Dap-Ala-Phe-DPro]]
,5.7,25%,PRFFXAFP (head-to-tail cyclic; DArg at 2; Dap at 5; DPro at 8) [c[Pro-DArg-Phe-Phe-Dap-Ala-Phe-DPro]]
> 100000 nM,6,,PRFFXAFP (head-to-tail cyclic; DArg at 2; DPhe at 3; Dap at 5; DPro at 8) [c[Pro-DArg-DPhe-Phe-Dap-Ala-Phe-DPro]]
> 100000 nM,< 5.5,,PRFFXAFP (head-to-tail cyclic; DPhe at 4; Dap at 5; DPro at 8) [c[Pro-Arg-Phe-DPhe-Dap-Ala-Phe-DPro]]
> 100000 nM,5.7,,PRFFXAFP (head-to-tail cyclic; DPhe at 3 and 4; Dap at 5; DPro at 8) [c[Pro-Arg-DPhe-DPhe-Dap-Ala-Phe-DPro]]
> 100000 nM,< 5.5,,PRFFXAFP (head-to-tail cyclic; DArg at 2; DPhe at 3 and 4; Dap at 5; DPro at 8) [c[Pro-DArg-DPhe-DPhe-Dap-Ala-Phe-DPro]]

# Molecular target: T1, mouse melanocortin-1 receptor
# Assay: cell-based or functional assay
# Remark: another data set of the same source
row,% activation at 100 µM (cAMP AlphaScreen),Binder
1,60%,cyclo(PRFFNAG[dP]) [c[Pro-Arg-Phe-Phe-Asn-Ala-Gly-DPro]]
2,35%,cyclo(PRFFNAS[dP]) [c[Pro-Arg-Phe-Phe-Asn-Ala-Ser-DPro]]

# Molecular target: T2, mouse melanocortin-5 receptor
# Assay: cell-based or functional assay
# Remark: another data set of the same source
inverse agonist apparent potency,"inverse agonist, % decrease from basal cAMP","inverse agonist, % change from basal cAMP at 100 µM",Binder
780 nM,-20%,,PRFFNAXP (head-to-tail cyclic; Cha at 7; DPro at 8) [c[Pro-Arg-Phe-Phe-Asn-Ala-Cha-DPro]]
290 nM,-20%,,cyclo(PRFFNA[hPhe][dP]) [c[Pro-Arg-Phe-Phe-Asn-Ala-hPhe-DPro]]
150 nM,-20%,,cyclo(PRFFNAW[dP]) [c[Pro-Arg-Phe-Phe-Asn-Ala-Trp-DPro]]
,,-35%,cyclo(PRFFNAL[dP]) [c[Pro-Arg-Phe-Phe-Asn-Ala-Leu-DPro]]
,,-40%,cyclo(PRFFNAK[dP]) [c[Pro-Arg-Phe-Phe-Asn-Ala-Lys-DPro]]
,,-25%,cyclo(PRFFNAG[dP]) [c[Pro-Arg-Phe-Phe-Asn-Ala-Gly-DPro]]
,,-40%,cyclo(PRFFNAY[dP]) [c[Pro-Arg-Phe-Phe-Asn-Ala-Tyr-DPro]]
,,-55%,cyclo(PRFFNAS[dP]) [c[Pro-Arg-Phe-Phe-Asn-Ala-Ser-DPro]]
